Laboratory results: paper PMC12139977

Legend:
[1] = target: Syntaxin-1A (rat (endogenous in INS1 (832/13))) (UniProt P32851); assay: proximity ligation
[2] = target: Syntaxin-1A (rat (endogenous in INS1 (832/13))) (UniProt P32851); assay: co-IP

Sequence of UniProt P32851 (P32851 whole entry): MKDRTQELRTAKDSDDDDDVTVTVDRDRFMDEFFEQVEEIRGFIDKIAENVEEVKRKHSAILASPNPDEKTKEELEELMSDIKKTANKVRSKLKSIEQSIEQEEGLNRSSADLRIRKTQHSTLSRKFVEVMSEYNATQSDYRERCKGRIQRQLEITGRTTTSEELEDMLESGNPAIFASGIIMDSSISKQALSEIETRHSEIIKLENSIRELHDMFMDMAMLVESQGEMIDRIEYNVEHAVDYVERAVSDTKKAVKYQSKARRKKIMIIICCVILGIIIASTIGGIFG

Row | Substance | fold increase of PLA signal over the control [1] [fold] | fold increase of Tomosyn-2 bound to Stx1A against control cells [2] [fold]
1 | Tomosyn-2 (natural protein) | 8 | –
2 | stabilized V5-tagged Tomosyn-2 (natural protein) | – | 3
